{"source": "patent US20240398899A1", "about": "(priority 2021, published 2024)", "key": {"[1]": {"system": "SH-SY5Y neuronal cells", "assay": "Annexin-V staining of apoptotic cells against MPP+ iodide damage", "type": "cell-based, human", "conditions": "MPP+ iodide 1 mM; for % Decrease in Apoptotic cells (wrt MPP + iodide): Annexin", "protocol": "After 24 h of treatment, cells were exposed to damage (MPP+ iodide 1 mM) for 24 h. […] Untreated cells were included as control. Cells treated with Deprenyl served as positive control. After treatment, cells were harvested by trypsinization and processed for Annexin V assay as follows: Cell were gently harvested into pre-labeled sterile centrifuge tubes and centrifuged at 300×g for 5-7 min. After 24 h of treatment, cells were exposed to damage (MPP+ iodide 1 mM) for 24 h. Cells treated with MPP+ iodide alone were included as Control. Untreated cells were included as negative control. Cells treated with Deprenyl served as positive control. After treatment, cells were harvested by trypsinization and processed for Annexin V assay as follows: Cell were gently harvested into pre-labelled sterile centrifuge tubes and centrifuged at 300×g for 5-7 min. Supernatant were discarded and the pellet was resuspended in 200 μl of fresh culture medium. 100 μl of cell suspension was transferred into pre-labeled sterile centrifuge tubes. 100 μl of Annexin-V reagent was added to each tube and incubated for 30 min at RT in dark. Cells stained for Annexin-V were then transferred into 96-well plates and acquired on flow cytometer (Guava technologies). Percentage of Annexin-V positive cells was determined.\nPercent inhibition in apoptotic cells=[(% Annexin positive cells in MPP+iodide alone)−(% Annexin positive cells in Recombinant Lectin having SEQ ID NO:1+MPP+iodide)/% Annexin positive cells in MPP+iodide alone]*100"}, "[2]": {"system": "SH-SY5Y neuronal cells", "assay": "Sub (G0/G1) cell population by PI cell cycle assay against MPP+ iodide damage", "type": "cell-based, human", "conditions": "MPP + Iodide (2 mM); for % Decrease in Apoptotic cells (wrt MPP + iodide): SubG0/G1", "protocol": "After incubation as in Example 2a and 2b, cells were harvested by trypsinization and processed for Cell cycle assay as follows: Cell cycle reagent contains PI stain, which stains DNA of cells in different phases of cell cycle; Sub (G0/G1), G1, S, G2 and M. Cells in Sub (G0/G1) phase correspond to apoptotic cells.\nCells were gently harvested into pre-labelled centrifuge tubes and centrifuged at 450 g for 5 min, RT (low brake). The supernatants were removed carefully and discarded. 1 ml of 1×PBS was added to the pellet and resuspended gently to make homogenous suspension. Cells were centrifuged at 450 g for 5 min, RT (low brake). The supernatant was carefully removed leaving behind approximately 100 μl of PBS. Cells were resuspended gently yet thoroughly in residual PBS. The cells were fixed by adding Ice-cold 70% ethanol (100 μl) added dropwise into cells in each tube while vortexing at low speed Cells were stored at 4° C. for 24 h prior to staining.\nEthanol fixed cells were centrifuged at 450 g for 5 min, RT (low brake) the supernatant was carefully removed (not to touch the pellet) and discarded. 1 ml of 1×PBS was added into pellet and resuspended gently. Cells were incubated for 1 minute at RT. Cells were centrifuged at 450 g for 5 min, RT (low brake). (washing step) The supernatant was removed carefully leaving behind approx. 20 μl-50 μl of PBS. 200 μl of Cell Cycle reagent was added into each tube. Cells were resuspended gently and mixed. Cells were incubated for 30 min, RT, Dark. The stained samples were transferred into 96-well plates and acquired on flow cytometer (Guava technologies). Percentage of cells in Sub (G0/G1) phase were determined.\nPercent inhibition in apoptotic cells=[(% Sub(G0/G1)cells in MPP+iodide alone) −(% Sub(G0/G1)cells in SEQ ID NO:1+MPP+iodide)/% Sub(G0/G1)cells in MPP+iodide alone]*100"}, "[3]": {"system": "neuronal cells (pc12)", "assay": "Neurite formation against MPP+ induced damage", "type": "cell-based, rat", "conditions": "NGF (200 ng/ml) + MPP (100 μM)", "protocol": "(§1) Cells were counted using haemocytometer and plated in 24-well plates at the densities corresponding to 1×10^4 cells/well/500 μl of the growth medium. The cells were then incubated for 48 h in 5% CO2 incubator at 37° C. Effect of Recombinant Lectin having SEQ ID NO: 1 on neurite formation was evaluated in both basal and MPP+ damage induced model.\nThe percent protection in neurite formation against MPP+ induced damage was determined as follows:\n[formula] • Where, • A=No of neurites in Cells treated with NGF+SEQ ID NO: 1+MPP+ • B=No of neurites in Cells treated with NGF+MPP+ • C=No of Neurites Cells treated with NGF alone"}, "[4]": {"system": "Brain NGF (Nerve Growth Factor)", "assay": "Brain biomarker ELISA, scopolamine induced dementia", "type": "in vivo, Mus musculus (Swiss Albino)", "conditions": "for brain nerve growth factor (NGF) Mean: scopolamine 2.5 mg/kg i.p., mice", "method": "Healthy male Swiss albino mice (n=48) were selected and randomized based on body weight (n=8 per Group) into 6 groups as mentioned in table no-1. The control group G1 was treated intravenously with vehicle daily till the experiment completion. Group G2 was considered as negative control and treated with vehicle. […] Group G4, G5 &G6 animals were treated with the test item recombinant lectin protein having SEQ ID NO: 1 at the dose of 0.5 mg/kg, 0.25 mg/kg and 0.125 mg/kg, respectively. All the test items were given intravenously (i.v) daily at the dose volume of 5 ml/kg for 14 Days. The body weight was recorded daily throughout the experimental period. […] One hour after the last dose of test items (on Day 14) all the animals were injected with scopolamine hydrobromide at the dose of 2.5 mg/kg, i.p., except the normal control group G1. Passive avoidance test was conducted 30 min after scopolamine injection.\nAfter passive avoidance test screening models of memory, the animals were sacrificed humanely. The whole brain was carefully removed from the skull and weighed. Brain was dissected into two portions\n10% w/v brain homogenate (100 mg/mL) was prepared by homogenizing it in ice-chilled phosphate buffer. The homogenate was subsequently centrifuged using a refrigerated centrifuge at 3000 rpm for 10 min, and the supernatant was separated and used for the biochemical estimations.\nFollowing biomarkers was estimated using ELISA kit as per manufacturer's instruction. • Brain NGF (Nerve Growth Factor), CUSABIO, Catalog No. CSB-E04684m • Acetylcholinesterase, CUSABIO, Catalog No. CSB-E17521m • TNF alpha, CUSABIO, Catalog No. CSB-E04741m"}, "[5]": {"system": "neuronal cells (pc12)", "assay": "Neurite formation, basal model", "type": "cell-based, rat", "protocol": "as §1\nFor basal model the percent increase in neurite formation was determined as follows"}}, "note": "Where “and” joins values, the source holds several entries; their conditions need not be identical. Equal entries are not always repeated."}
{"molecule": "SEQ ID NO: 1: variant of the S. rolfsii lectin amino acid sequence (reported as Rec-2 in WO2010/095143) (protein) TYKITVRVYQTNPDAFFHPVEKTVWKYANGGTWTITDDQHVLTMGGSGTSGTLRFHADNGESFTATFGVHNYKRWCDIVTNLAADETGMVINQQYYSQKNREEARERQLSNYQVKNAKGRNFQIVYTEAEGNDLHANLIIG", "values": [{"measurement": "% Apoptotic cells (Anenxin + ve)", "setting": "[1]; 0.001 μg/mL", "value": 1.8, "unit": "%"}, {"measurement": "% Decrease in Apoptotic cells (wrt MPP + iodide)", "setting": "[1]; 0.001 μg/mL", "value": 56.8, "unit": "%"}, {"measurement": "% Apoptotic cells (Anenxin + ve)", "setting": "[1]; 0.01 μg/mL", "value": 1.2, "unit": "%"}, {"measurement": "% Decrease in Apoptotic cells (wrt MPP + iodide)", "setting": "[1]; 0.01 μg/mL", "value": 70.4, "unit": "%"}, {"measurement": "% Apoptotic cells (Anenxin + ve)", "setting": "[1]; 0.05 μg/mL", "value": 2.6, "unit": "%"}, {"measurement": "% Decrease in Apoptotic cells (wrt MPP + iodide)", "setting": "[1]; 0.05 μg/mL", "value": 35.8, "unit": "%"}, {"measurement": "% Apoptotic cells (Anenxin + ve)", "setting": "[1]; 0.1 μg/mL", "value": 3.1, "unit": "%"}, {"measurement": "% Decrease in Apoptotic cells (wrt MPP + iodide)", "setting": "[1]; 0.1 μg/mL", "value": 23.5, "unit": "%"}, {"measurement": "% Apoptotic cells (Anenxin + ve)", "setting": "[1]; 1 μg/mL", "value": 2.3, "unit": "%"}, {"measurement": "% Decrease in Apoptotic cells (wrt MPP + iodide)", "setting": "[1]; 1 μg/mL", "value": 43.2, "unit": "%"}, {"measurement": "% Apoptotic cells (SubG0/G1)", "setting": "[2]; 0.001 μg/mL", "value": 2.7, "unit": "%"}, {"measurement": "% Decrease in Apoptotic cells (wrt MPP + iodide)", "setting": "[2]; 0.001 μg/mL", "value": 18.8, "unit": "%"}, {"measurement": "% Apoptotic cells (SubG0/G1)", "setting": "[2]; 0.01 μg/mL", "value": 2.2, "unit": "%"}, {"measurement": "% Decrease in Apoptotic cells (wrt MPP + iodide)", "setting": "[2]; 0.01 μg/mL", "value": 33.5, "unit": "%"}, {"measurement": "% Apoptotic cells (SubG0/G1)", "setting": "[2]; 0.05 μg/mL", "value": 2.4, "unit": "%"}, {"measurement": "% Decrease in Apoptotic cells (wrt MPP + iodide)", "setting": "[2]; 0.05 μg/mL", "value": 29.9, "unit": "%"}, {"measurement": "% Apoptotic cells (SubG0/G1)", "setting": "[2]; 0.1 μg/mL", "value": 2.4, "unit": "%"}, {"measurement": "% Decrease in Apoptotic cells (wrt MPP + iodide)", "setting": "[2]; 0.1 μg/mL", "value": 27.7, "unit": "%"}, {"measurement": "% Apoptotic cells (SubG0/G1)", "setting": "[2]; 1 μg/mL", "value": 2.2, "unit": "%"}, {"measurement": "% Decrease in Apoptotic cells (wrt MPP + iodide)", "setting": "[2]; 1 μg/mL", "value": 35, "unit": "%"}, {"measurement": "% Protection in formation of Neurites (w.r.t. MPP+)", "setting": "[3]; 0.001 μg/ml", "value": 7.3, "unit": "%"}, {"measurement": "Average No. of Neurites", "setting": "[3]; 0.001 μg/ml", "value": 21}, {"measurement": "% Protection in formation of Neurites (w.r.t. MPP+)", "setting": "[3]; 0.01 μg/ml", "value": 43.6, "unit": "%"}, {"measurement": "Average No. of Neurites", "setting": "[3]; 0.01 μg/ml", "value": 28}, {"measurement": "% Protection in formation of Neurites (w.r.t. MPP+)", "setting": "[3]; 0.1 μg/ml", "value": 76.4, "unit": "%"}, {"measurement": "Average No. of Neurites", "setting": "[3]; 0.1 μg/ml", "value": 34}, {"measurement": "% Protection in formation of Neurites (w.r.t. MPP+)", "setting": "[3]; 1 μg/ml", "value": 78.2, "unit": "%"}, {"measurement": "Average No. of Neurites", "setting": "[3]; 1 μg/ml", "value": 34}, {"measurement": "% Protection in formation of Neurites (w.r.t. MPP+)", "setting": "[3]; 5 μg/ml", "value": 58.2, "unit": "%"}, {"measurement": "Average No. of Neurites", "setting": "[3]; 5 μg/ml", "value": 30}, {"measurement": "level of NGF (brain)", "setting": "[4]; 0.25 mg/kg, scopolamine treated mice", "value": 62, "unit": "µg/mL"}, {"measurement": "brain nerve growth factor (NGF) Mean", "setting": "[4]; G4: 0.5 mg/kg i.v. qdx14", "value": "71.6 pg/mL and 71.59 pg/mL"}, {"measurement": "brain nerve growth factor (NGF) Mean", "setting": "[4]; G5: 0.25 mg/kg i.v. qdx14", "value": 61.96, "unit": "pg/mL"}, {"measurement": "brain nerve growth factor (NGF) Mean", "setting": "[4]; G6: 0.125 mg/kg i.v. qdx14", "value": 38.62, "unit": "pg/mL"}, {"measurement": "% Protection in the formation of Neurites (w.r.t. MPP+)", "setting": "[5]; 0.001 μg/ml", "value": 54.7, "unit": "%"}, {"measurement": "Average No. of Neurites", "setting": "[5]; 0.001 μg/ml", "value": 27}, {"measurement": "% Protection in the formation of Neurites (w.r.t. MPP+)", "setting": "[5]; 0.01 μg/ml", "value": 47.2, "unit": "%"}, {"measurement": "Average No. of Neurites", "setting": "[5]; 0.01 μg/ml", "value": 26}, {"measurement": "% Protection in the formation of Neurites (w.r.t. MPP+)", "setting": "[5]; 0.1 μg/ml", "value": 18.9, "unit": "%"}, {"measurement": "Average No. of Neurites", "setting": "[5]; 0.1 μg/ml", "value": 21}, {"measurement": "% Protection in the formation of Neurites (w.r.t. MPP+)", "setting": "[5]; 5 μg/ml", "value": 34, "unit": "%"}, {"measurement": "Average No. of Neurites", "setting": "[5]; 5 μg/ml", "value": 24}]}
